# From publication PMC6641633 (ACS Omega, 2018)
# Changes are numbered by the printed parent chain. Numbers in names are those of the source.
# B1: truncated hepatitis B virus capsid protein Cp149, wild type (domain or fragment, UniProt P03146 1-149, looked up)
# chain: MDIDPYKEFGATVELLSFLPSDFFPSVRDLLDTASALYREALESPEHCSPHHTALRQAILCWGELMTLATWVGVNLEDPASRDLVVSYVNTNMGLKFRQLLWFHISCLTFGRETVIEYLVSFGVWIRTPPAYRPPNAPILSTLPETTVV
# B2: Cp149-D2N/D4N mutant of the truncated hepatitis B virus capsid protein (domain or fragment, UniProt P03146 1-149, looked up)
# chain: B1 chain with D2N, D4N
# Biological target: the molecule itself
# Experiment: dynamic light scattering
row,Protein,stoichiometry N
1,B1,2
2,B2,2
